The numbers were not newly measured in publication PMC4379523, which cites them from elsewhere.

In this data set the target is ribosomal protein L3 N-terminal peptide (L3Δ21) 1-21 (Saccharomyces cerevisiae) (UniProt P14126). The experiment in a line: SPR.
UniProt P14126, sequence (P14126 1-21, stated change not applied): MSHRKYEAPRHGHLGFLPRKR

As to “Pokeweed antiviral protein (PAP) (from UniProt P10297)”, the Kd is 24.8 nM.
